Bridge positions count the residues as written; N and C are the ends.

For orientation: Kd means the equilibrium constant for the complex coming apart.

The chains are these.
B1: SEQ ID NO:264 (peptide)
peptide: Ac-AGPKWCEEDWYYCMITGTGGGK-NH2
modifications: cysteine pairing not given here; also: C-terminal Lys fluorescein-labeled for some assays, unlabeled for others

The target of the first experiment is T1, human KDR-Fc fusion (R&D Systems #357-KD-050) (human, UniProt P35968 20-764).
T1 construct: bought
T1 sequence (P35968 20-764): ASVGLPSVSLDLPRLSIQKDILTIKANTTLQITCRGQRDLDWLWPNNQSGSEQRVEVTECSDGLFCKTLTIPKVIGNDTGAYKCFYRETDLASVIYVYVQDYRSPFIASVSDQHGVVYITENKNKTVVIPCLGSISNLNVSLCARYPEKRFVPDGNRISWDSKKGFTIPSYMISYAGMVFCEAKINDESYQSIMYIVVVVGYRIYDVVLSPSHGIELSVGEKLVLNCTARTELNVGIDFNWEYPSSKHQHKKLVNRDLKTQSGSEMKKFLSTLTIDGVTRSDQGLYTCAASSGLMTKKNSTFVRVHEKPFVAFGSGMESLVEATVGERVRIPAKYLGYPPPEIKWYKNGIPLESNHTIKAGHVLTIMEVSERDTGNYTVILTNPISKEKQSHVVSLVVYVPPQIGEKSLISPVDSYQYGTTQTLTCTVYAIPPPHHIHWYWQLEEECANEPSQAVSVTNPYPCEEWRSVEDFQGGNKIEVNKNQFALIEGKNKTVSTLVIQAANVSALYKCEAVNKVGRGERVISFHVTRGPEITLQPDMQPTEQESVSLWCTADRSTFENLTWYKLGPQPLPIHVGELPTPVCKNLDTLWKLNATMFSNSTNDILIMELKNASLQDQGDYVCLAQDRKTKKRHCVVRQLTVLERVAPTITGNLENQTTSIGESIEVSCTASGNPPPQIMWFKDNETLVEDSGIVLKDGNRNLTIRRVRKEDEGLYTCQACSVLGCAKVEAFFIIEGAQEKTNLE
In words: phage binding screen on KDR-Fc; class legend in paragraph 246.
Take VSKGSIDVGEGISYWEIIEL [phage isolate VSKGSIDVGEGISYWEIIEL]: the binding result is on record as “binds”.

Take STNGDSFVYWEEVELVDHPY [phage isolate STNGDSFVYWEEVELVDHPY]: the binding result was “binds”.

Regarding EWYWTEHVGMKHGFFV [phage isolate EWYWTEHVGMKHGFFV], the binding result is recorded as “binds”.

Regarding WVTKQQFIDTYGRKEWTILF [phage isolate WVTKQQFIDTYGRKEWTILF], the binding result is listed as “binds”.

As for RSWYLGPPYYEEWDPIPN [phage isolate RSWYLGPPYYEEWDPIPN], the binding result is listed as “binds”.

WYHDGLHNERKPPSHWIDNV [phage isolate WYHDGLHNERKPPSHWIDNV]: the binding result is “binds”.

EWDAQYWHDLRQQYMLDYIQ [phage isolate EWDAQYWHDLRQQYMLDYIQ]: the binding result is reported as “binds”.

PEDSEAWYWLNYRPTMFHQL [phage isolate PEDSEAWYWLNYRPTMFHQL]: the binding result is “binds”.

DALEAPKRDWYYDWFLNHSP [phage isolate DALEAPKRDWYYDWFLNHSP]: the binding result was “binds”.

For the molecule EPEGYAYWEVITLYHEEDGD [phage isolate EPEGYAYWEVITLYHEEDGD], the binding result was “binds”.

With QVQYQFFLGTPRYEQWDLDK [phage isolate QVQYQFFLGTPRYEQWDLDK], the binding result was “binds”.

For QVQYQFILGTPRYEQWDPDK [phage isolate QVQYQFILGTPRYEQWDPDK], the binding result is on record as “binds”.

Consider TKWGPNPEHWQYWYSHYASS [phage isolate TKWGPNPEHWQYWYSHYASS], for which the binding result was “binds”.

As to WYYDWFHNQRKPPSDWIDNL [phage isolate WYYDWFHNQRKPPSDWIDNL], the binding result is on record as “binds”.

Consider ISPWREMSGWGMPWITAVPH [phage isolate ISPWREMSGWGMPWITAVPH], for which the binding result was “binds”.

With GSDHVRVDNYWWNGMAWEIF [phage isolate GSDHVRVDNYWWNGMAWEIF], the binding result is given as “binds”.

As for FDVVNWGDGIWYAYPS [phage isolate FDVVNWGDGIWYAYPS], the binding result is on record as “binds”.

KKEDAQQWYWTDYVPSYLYR [phage isolate KKEDAQQWYWTDYVPSYLYR]: the binding result is “binds”.

As for AQMPPWWPLAVDALFDWFE [phage isolate AQMPPWWPLAVDALFDWFE], the binding result is “binds”.

In the case of PSNSWAAVWEDDMQRLMRQH [phage isolate PSNSWAAVWEDDMQRLMRQH], the binding result is “binds”.

For the molecule GDYVYWEIIELTGATDHTPP [phage isolate GDYVYWEIIELTGATDHTPP], the binding result is “binds”.

As to RGDYQEQYWHQQLVEQLKLL [phage isolate RGDYQEQYWHQQLVEQLKLL], the binding result is recorded as “binds”.

As for SYEQWLPQYWAQYKSNYFL [phage isolate SYEQWLPQYWAQYKSNYFL], the binding result was “binds”.

In the case of MPPGFSYWEQAALHDDAQDL [phage isolate MPPGFSYWEQAALHDDAQDL], the binding result was “binds”.

As for DWYWREWMPMHAQFLADDW [phage isolate DWYWREWMPMHAQFLADDW], the binding result is given as “binds”.

As for LEEVFEDFQDFWYTEHIIVDR [phage isolate LEEVFEDFQDFWYTEHIIVDR], the binding result is given as “binds”.

With ARMGDDWEEAPPHEWGWADG [phage isolate ARMGDDWEEAPPHEWGWADG], the binding result is recorded as “binds”.

With QIEYVNDKWYWTGGYWNVPF [phage isolate QIEYVNDKWYWTGGYWNVPF], the binding result is recorded as “binds”.

As for PRLGDDFEEAPPLEWWWAHF [phage isolate PRLGDDFEEAPPLEWWWAHF], the binding result is recorded as “binds”.

With DWYYDEILSMADQLRHAFLS [phage isolate DWYYDEILSMADQLRHAFLS], the binding result is “binds”.

For RDEWGWTGVPYEGEMGYQIS [phage isolate RDEWGWTGVPYEGEMGYQIS], the binding result is listed as “binds”.

On to DWYWQRERDKLREHYDDAFW [phage isolate DWYWQRERDKLREHYDDAFW], for which the binding result is listed as “binds”.

Consider EEQQALYPGCEPAEHWVYAG [phage isolate EEQQALYPGCEPAEHWVYAG], for which the binding result was “binds”.

For the molecule WESDYWDQMRQQLKTAYMKV [phage isolate WESDYWDQMRQQLKTAYMKV], the binding result was “binds”.

With AFPRFGGDDYWIQQYLRYTD [phage isolate AFPRFGGDDYWIQQYLRYTD], the binding result is given as “binds”.

In the case of AFPRFGGDDYWIQQYLRYTF [phage isolate AFPRFGGDDYWIQQYLRYTF], the binding result is “binds”.

Turning to PVTDWTPHHPKAPDVWLFYT [phage isolate PVTDWTPHHPKAPDVWLFYT], the binding result was “binds”.

As for WLYDYWDRQQKSEEFKFWSQ [phage isolate WLYDYWDRQQKSEEFKFWSQ], the binding result is “binds”.

MPPGFSYWEQVVLHDDAQVL [phage isolate MPPGFSYWEQVVLHDDAQVL]: the binding result is “binds”.

In the case of FPSQMWQQKVSHHFFQHKGY [phage isolate FPSQMWQQKVSHHFFQHKGY], the binding result is “binds”.

On to AFEIEYWDSVRNKIWQHFPD [phage isolate AFEIEYWDSVRNKIWQHFPD], for which the binding result is given as “binds”.

Another experiment deals with T1, human KDR-Fc fusion (R&D Systems …). In words: fluorescence anisotropy, fluorescein-labeled peptide. Background: Polarisation of emitted light reports the rotation of a fluorescent probe.
The molecule Ac-AGIDFCKGMAPWLCADMGTGGGK-NH2 (disulfide 6-14 (inferred); not fully specified) [SEQ ID NO:311] registered a dissociation constant Kd of 730 nM.

In the case of Ac-GDGWACAKWPWGGEICQPSDPGGGK-NH2 (disulfide 6-16 (inferred); not fully specified) [SEQ ID NO:300], binding was put at a Kd of 1000 nM.

Ac-GSDHHCYLHNGQWICYPFAPGGGK-NH2 (disulfide 6-15 (inferred); not fully specified) [SEQ ID NO:314] gave a Kd of 260 nM.

Ac-GDDHMCRSPDYQDHVFCMYWDPGGGK-NH2 (disulfide 6-17 (inferred); not fully specified) [SEQ ID NO:295] returned a dissociation constant (Kd) of 480 nM.

Ac-GDYPWCHELSDSVTRFCVPWDPGGGK-NH2 (disulfide 6-17 (inferred); not fully specified) [SEQ ID NO:293] gave a dissociation constant Kd of 980 nM.

Ac-GDNWECGWSNMFQKEFCARPDPGGGK-NH2 (disulfide 6-17 (inferred); not fully specified) [SEQ ID NO:303]: the Kd turned out to be 210 nM.

Regarding Ac-GDGSWCEMRQDVGKWNCFSDDPGGGK-NH2 (disulfide 6-17 (inferred); not fully specified) [SEQ ID NO:299], the Kd turned out to be 620 nM.

In turn, Ac-AQRGDYQEQYWHQQLVEQLKLLGGK-NH2 (not fully specified) [SEQ ID NO:308] had a Kd of 310 nM.

The target is the same in another experiment. Kind of experiment: Biacore, KDR-Fc on CM5 chip, unlabeled peptide. In general terms: SPR reads the build-up and loss of mass on a sensor chip optically.
Ac-AGIDFCKGMAPWLCADMGTGGGK-NH2 (disulfide 6-14 (inferred); not fully specified) [SEQ ID NO:311] yielded a dissociation constant Kd of 180 nM.

Ac-GDGWACAKWPWGGEICQPSDPGGGK-NH2 (disulfide 6-16 (inferred); not fully specified) [SEQ ID NO:300] gave a dissociation constant (Kd) of 1500 nM.

Ac-GSDHHCYLHNGQWICYPFAPGGGK-NH2 (disulfide 6-15 (inferred); not fully specified) [SEQ ID NO:314] displayed a dissociation constant (Kd) of 150 nM.

Consider Ac-GDDHMCRSPDYQDHVFCMYWDPGGGK-NH2 (disulfide 6-17 (inferred); not fully specified) [SEQ ID NO:295], for which the Kd is 140 nM.

As for Ac-GDYPWCHELSDSVTRFCVPWDPGGGK-NH2 (disulfide 6-17 (inferred); not fully specified) [SEQ ID NO:293], the Kd was determined as 180 nM.

For the molecule Ac-AQDWYYDEILSMADQLRHAFLSGGGK-NH2 (not fully specified) [SEQ ID NO:310], the affinity, expressed as Kd, was 50 nM.

For Ac-GDNWECGWSNMFQKEFCARPDPGGGK-NH2 (disulfide 6-17 (inferred); not fully specified) [SEQ ID NO:303], the Kd was 990 nM.

In turn, Ac-GDGSWCEMRQDVGKWNCFSDDPGGGK-NH2 (disulfide 6-17 (inferred); not fully specified) [SEQ ID NO:299] came in with a Kd of 180 nM.

In turn, Ac-AQRGDYQEQYWHQQLVEQLKLLGGK-NH2 (not fully specified) [SEQ ID NO:308] yielded a Kd of 5300 nM.

Molecule B1 showed a dissociation constant (Kd) of 27 nM.

For the next experiment, the target named is KDR on human umbilical vein endothelial cells (HUVECs) (human, UniProt P35968 20-1356). In words: cell-based or functional assay.
Sequence of KDR on human umbilical vein endothelial cells (HUVECs) (P35968 20-1356): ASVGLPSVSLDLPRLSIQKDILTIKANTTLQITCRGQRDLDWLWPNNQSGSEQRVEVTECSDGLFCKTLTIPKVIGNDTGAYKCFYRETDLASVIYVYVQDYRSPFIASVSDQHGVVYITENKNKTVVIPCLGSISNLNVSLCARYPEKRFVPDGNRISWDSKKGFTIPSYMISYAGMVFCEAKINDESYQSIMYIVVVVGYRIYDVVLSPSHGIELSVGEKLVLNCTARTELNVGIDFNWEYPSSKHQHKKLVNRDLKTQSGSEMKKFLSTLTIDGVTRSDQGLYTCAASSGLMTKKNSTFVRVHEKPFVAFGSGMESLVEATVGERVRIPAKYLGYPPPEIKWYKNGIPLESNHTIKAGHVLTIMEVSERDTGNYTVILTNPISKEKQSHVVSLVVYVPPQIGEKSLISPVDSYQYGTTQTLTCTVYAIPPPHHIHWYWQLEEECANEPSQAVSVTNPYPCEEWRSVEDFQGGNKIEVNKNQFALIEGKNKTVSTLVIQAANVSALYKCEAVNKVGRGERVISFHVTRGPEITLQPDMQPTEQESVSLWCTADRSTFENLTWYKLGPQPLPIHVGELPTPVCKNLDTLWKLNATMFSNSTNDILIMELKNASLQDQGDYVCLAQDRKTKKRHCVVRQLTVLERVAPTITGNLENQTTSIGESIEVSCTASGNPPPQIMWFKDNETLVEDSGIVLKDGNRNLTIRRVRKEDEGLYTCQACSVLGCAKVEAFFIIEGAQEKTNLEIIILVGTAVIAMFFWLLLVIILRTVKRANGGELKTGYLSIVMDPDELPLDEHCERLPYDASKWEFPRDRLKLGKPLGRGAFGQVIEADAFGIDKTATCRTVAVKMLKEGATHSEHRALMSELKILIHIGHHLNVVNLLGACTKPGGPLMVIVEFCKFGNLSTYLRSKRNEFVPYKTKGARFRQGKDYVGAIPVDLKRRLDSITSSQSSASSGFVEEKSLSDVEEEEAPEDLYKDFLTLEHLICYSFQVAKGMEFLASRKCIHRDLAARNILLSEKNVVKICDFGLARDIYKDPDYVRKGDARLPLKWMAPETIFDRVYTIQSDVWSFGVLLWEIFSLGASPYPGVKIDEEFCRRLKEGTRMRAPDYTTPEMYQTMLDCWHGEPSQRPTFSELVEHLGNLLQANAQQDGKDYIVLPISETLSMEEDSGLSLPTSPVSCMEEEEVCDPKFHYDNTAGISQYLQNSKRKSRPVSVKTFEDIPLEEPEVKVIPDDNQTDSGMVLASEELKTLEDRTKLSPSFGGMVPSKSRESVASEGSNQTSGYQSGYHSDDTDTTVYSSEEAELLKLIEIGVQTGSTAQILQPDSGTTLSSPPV
Turning to VCWEDSWGGEVCFRYDPGGGK [SEQ ID NO:337 monomeric free peptide (VCWEDSWGGEVCFRYDPGGGK)], the “IC50, receptor activation assay” value stood at 1000 nM.

For the origin of these results see EP2014310A2 (Dyax Corporation, dated 2009).
